This note sets out measurements from US20210155907.

Common to all, as to test: cell_activity
The test system of data set [1] is TAL1-Tet1-CD (TAL effector repeat array to KLF4 site 1, Gly3Ser linker, Tet1 catalytic domain). Conditions: CpG demethylation 15 bp downstream of site (32.5% at 9 bp); K562 cells, bisulfite sequencing.
Data set [2] deals with TAL2-Tet1-CD (KLF4 site 2). The following applies: CpG demethylation 17 bp downstream (28.2% at 27 bp, none at 1 and 3 bp); K562 cells.
Data set [3] concerns TAL3-Tet1-CD (KLF4 site 3). Conditions: CpG demethylation at 22, 36, 116 and 143 bp downstream; K562 cells.
The subject of data set [4] is TAL4-Tet1-CD (KLF4 site 4). Conditions: CpG demethylation 13 bp downstream, no other CpGs significant; K562 cells.
The subject of data set [5] is KLF4 six-finger ZF-Tet1 fusion (engineered). The following applies: CpG demethylation 6 bp downstream (25% at 24 bp); K562 cells; one of two KLF4 ZF-Tet1 proteins.

In turn, “GGGGGCGGGCGGAGCCTTGGGGTCACCAAGAGCCACTGAACGAGGGTAAGGAGCGGCCACCGCGCGGACTCCGCAACCTTCCCGGGATAGCTTCCGTGTCCTTGGCTCAGCTGTGTATGCCCGTGGTGCGAGCACTGCGGAGCCGCCTGGGGCGCAAGCCGGGTCTTCACCAGTCCCCGGGCGCGCTGTCGGTAGGGCGGGCGCTCTCGGGCCACCGGGCGGGAGGTGGCCGCGTCCCCAGACACTGGCTGGGCCAGAGTGAGTTTAGCGCGTAGGCGGC (double strand) [KLF4 intron 1-2 TAL site 1]” had an activity in data set [1] of 45.4%.

For “GGGGGCGGGCGGAGCCTTGGGGTCACCAAGAGCCACTGAACGAGGGTAAGGAGCGGCCACCGCGCGGACTCCGCAACCTTCCCGGGATAGCTTCCGTGTCCTTGGCTCAGCTGTGTATGCCCGTGGTGCGAGCACTGCGGAGCCGCCTGGGGCGCAAGCCGGGTCTTCACCAGTCCCCGGGCGCGCTGTCGGTAGGGCGGGCGCTCTCGGGCCACCGGGCGGGAGGTGGCCGCGTCCCCAGACACTGGCTGGGCCAGAGTGAGTTTAGCGCGTAGGCGGC (double strand) [KLF4 intron 1-2 TAL site 2]”, the activity in data set [2] was determined as 36.5%.

Take “GGGGGCGGGCGGAGCCTTGGGGTCACCAAGAGCCACTGAACGAGGGTAAGGAGCGGCCACCGCGCGGACTCCGCAACCTTCCCGGGATAGCTTCCGTGTCCTTGGCTCAGCTGTGTATGCCCGTGGTGCGAGCACTGCGGAGCCGCCTGGGGCGCAAGCCGGGTCTTCACCAGTCCCCGGGCGCGCTGTCGGTAGGGCGGGCGCTCTCGGGCCACCGGGCGGGAGGTGGCCGCGTCCCCAGACACTGGCTGGGCCAGAGTGAGTTTAGCGCGTAGGCGGC (double strand) [KLF4 intron 1-2 TAL site 3]”: the activity in data set [3] was > 25%.

Turning to “GGGGGCGGGCGGAGCCTTGGGGTCACCAAGAGCCACTGAACGAGGGTAAGGAGCGGCCACCGCGCGGACTCCGCAACCTTCCCGGGATAGCTTCCGTGTCCTTGGCTCAGCTGTGTATGCCCGTGGTGCGAGCACTGCGGAGCCGCCTGGGGCGCAAGCCGGGTCTTCACCAGTCCCCGGGCGCGCTGTCGGTAGGGCGGGCGCTCTCGGGCCACCGGGCGGGAGGTGGCCGCGTCCCCAGACACTGGCTGGGCCAGAGTGAGTTTAGCGCGTAGGCGGC (double strand) [KLF4 intron 1-2 TAL site 4]”, the activity in data set [4] worked out at 37%.

In data set [5], KLF4 locus ZF site yielded an activity of 68%.
